According to the supplement of paper PMC9170038:

System: MS2 coat protein
Test: apparent KD of MS2 coat protein; higher = weaker reporter binding
Conditions: Eterna round: R107
Summary of the method: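 In 100 mM Tris-HCl pH 7.5 with 80 mM KCl and 4 mM MgCl2, and without or with constant ligand, SNAP-549-labelled MS2 coat protein was titrated in twofold steps from 0.7 or 1.5 nM to 3 µM. Per-step times went from 0.8–1.5 h down to 10–20 min. The RNA switches were transcribed on-chip from Illumina sequencing clusters, and apparent KD is the per-design median of normalised cluster binding-curve fits.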

[1] = input ligand: theophylline 20 uM
[2] = input ligand: theophylline 2 mM
[3] = input ligand: tryptophan 2.4 mM

Sequence | apparent KD of MS2 coat protein (input ligand: arginine 13.2 mM) [nM] | apparent KD of MS2 coat protein (input ligand: none) [nM] | apparent KD of MS2 coat protein [1] [nM] | apparent KD of MS2 coat protein [2] [nM] | apparent KD of MS2 coat protein [3] [nM]
CGGCCCUCACCUGAGGAUCACCCAGGUGAUACCAGCCUGGAAACAGGCCCUUGGCAGCACCAGGUCAUCAAAGAUGACCAAGCCG [TheoAX 23 #SwitchBubble] | 9.35 | 10.5 | 15.2 | 128 | 10.9
GGGUCGCGUUCGGCCGCCACUUGGAAACAUGAGGAUCACCCAUGUCAUAUGGUGGGACAUGUUGUAAGGACCGGGAACCGUCCUA [theeternabot_exclusion_MS2_Trp_B_11] | 34.6 | – | 82.1 | 83.4 | –
ACAUGAGGAUCACCCAUGUAAUAAUCAGAAGGAGCGUGGAAUAACACAGGUAGGUCGCUGAUGUUUGGUUAAAUGUAAUCGUGUA [JR_SSArginiA_Sub001] | 13 | 13.5 | 18.1 | 17.6 | 17.1
AAAAGACAUGAGGAUCACCCAUGUAGAGAUACCAGAUGCAUGGACAUCCCUUGGCAGCUCGUCACUUUCUAUAUUUUCCAGACGC [theeternabot_sameState_MS2_Theo_A_37] | 31 | – | 59.1 | – | 59.1
AUUCAUAACUGAAGGAGCGUGAUAUAAAUUUUUACAUGAGGAUCACCCAUGUUUCAUAGAUCACAGGUAGGUCGCAGAUUCUCAU [JR_SSArginiB_Sub011] | 36.8 | 45.2 | 42.4 | 42.9 | 39.2
GGUGGGAGCAACGAUACCAGCUACAUGAGGAUCACCCAUGUGGAAUGGGAGUCAACAGCGAGCCCUUGGCAGCGUUAGACCCAAA [Bebeeserdi] | 13.2 | 11.3 | 20.4 | 128 | 11.6
GGAUAGGACACGGCCGCCACUAGCUAGGAUACUAGCAACAUUUCCUCAGAUGAGGAUCACCCAUCUAGGACCGGGUGUCCUAUCG | 25.7 | 26 | 36.5 | 33.6 | 84.4
UUGGGUUUGCGAAGGAGCGGGAAAUAUAUAUAUAUAAUCCUAACAUGAGGAUCACCCAUGUCCCAGGUAGGUCGCGCAGGUUUGG [12.L] | 58.1 | 54.2 | 81.8 | 73.2 | 58.7
CCCAGUUAUAUCAAAGGAAUUAUACUCGAAGGAGCGUCAUAGUAGGCAGGUAGGUCGCGAGACAUGAGGAUCACCCAUGUAGAGA [pxpmullin] | 37.6 | 51.6 | 58.4 | 34.5 | 30.4
UAAAAUAAUAAUGAUACCAGCCCUCCCUCCCGGGACAUGAGGAUCACCCAUGUCUCUCCCGGCCCUUGGCAGCAUAAAUAAUAAU [Same Stare - Theophylline B] | 12.1 | – | 15 | – | 12.1
CCCAGUCAUAGCAGGGCAAAUAUACUCGAAGGAGCGUCAUAGUAGGCAGGUAGGUCGCGAGACAUGAGGAUCACCCAUGUAGAGA [cccmullin] | 33.6 | 52.3 | 67 | 44.2 | 44.8
AUAAUGGGUAUCGGAUUAUCAUGGAAUGAUACCAGAUACUUAGAUAUCCCUUGGCAGCAUGAGGACAUGAGGAUCACCCAUGUAU [#03 Exclusion-TheophyllineA] | 31.3 | – | 56.9 | – | 54.9
UUCAGCUAGUCGGCCGCCACUACCUGAGGAUCACCCUGGUAAUCCUAACACUGCUUCGGCAGUGGUAGGACCGGGACUAGCUGAG | 27.7 | 28.2 | 39.7 | 32.6 | 225
UGCAUUAUACAUGGAUCACCCAUGUAGACACGAGGACCGGUACGGCCGCCACUCGGAAGAGGGAACAUGAGGAUCACCCAUGUGA [Try A SS t1] | 25.6 | – | 73.1 | 55 | –
UUAUUUAACGGAAGGAGCGCGGAAAUAAAAGUGGGUAAACAUGAGGAUCACCCAUGUAAACCGCAGGUAGGUCGCCGAUAUUUAU [AstrosEXyARgB#2] | 37 | 76.9 | 93.9 | 95.4 | 59.4
UUUGAUAGGACAGAUACCAGCGUGUUAUAGAACAUGAGGAUCACCCAUGUAGUGAUCAAGCGCCCUUGGCAGCUGGUUUGUUAGG [7.K] | 119 | – | 350 | – | 196
AAGGUAUCACAGACAUGGGUGUACUGUGAUACCAGCUAGGAAACUAGCCCUUGGCAGCACAUGAGGAUCACCCAUGUAAGAAUAA [(T)'-(M)'-(T1)-(T2)-(M1)-(M2)_Design4_2/19/17] | 34 | – | 94.9 | – | 53.8
